The results in this text go back to paper PMC12361444.

The assay has as its target HAdV-C5 hexon protein (human adenovirus C5) (UniProt P04133).
UniProt P04133, sequence (P04133 whole entry): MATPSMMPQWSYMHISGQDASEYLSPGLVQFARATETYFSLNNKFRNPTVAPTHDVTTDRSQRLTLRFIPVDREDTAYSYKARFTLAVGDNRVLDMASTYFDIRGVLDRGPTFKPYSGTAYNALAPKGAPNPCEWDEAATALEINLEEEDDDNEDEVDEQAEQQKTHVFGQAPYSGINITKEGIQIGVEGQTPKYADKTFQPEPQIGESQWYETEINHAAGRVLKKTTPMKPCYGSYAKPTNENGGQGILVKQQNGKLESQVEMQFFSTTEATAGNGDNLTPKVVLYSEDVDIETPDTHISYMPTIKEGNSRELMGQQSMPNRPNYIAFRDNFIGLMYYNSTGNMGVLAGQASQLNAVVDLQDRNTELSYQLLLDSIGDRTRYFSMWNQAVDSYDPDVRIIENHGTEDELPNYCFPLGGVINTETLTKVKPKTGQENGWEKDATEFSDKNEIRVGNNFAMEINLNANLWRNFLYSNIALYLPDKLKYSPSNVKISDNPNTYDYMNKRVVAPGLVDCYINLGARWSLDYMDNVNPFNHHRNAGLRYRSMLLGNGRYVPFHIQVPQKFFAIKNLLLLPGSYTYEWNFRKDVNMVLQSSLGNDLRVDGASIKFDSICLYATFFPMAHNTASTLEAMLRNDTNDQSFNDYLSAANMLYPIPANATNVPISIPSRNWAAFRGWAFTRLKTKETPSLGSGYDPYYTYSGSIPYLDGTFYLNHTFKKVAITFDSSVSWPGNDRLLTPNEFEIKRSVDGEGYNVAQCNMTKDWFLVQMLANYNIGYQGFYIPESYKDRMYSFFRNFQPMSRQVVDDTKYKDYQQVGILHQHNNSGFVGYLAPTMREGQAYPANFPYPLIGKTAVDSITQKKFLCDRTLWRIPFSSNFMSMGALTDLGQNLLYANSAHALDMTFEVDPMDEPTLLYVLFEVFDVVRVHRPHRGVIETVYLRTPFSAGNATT

With Human lactoferricin 1-49 (peptide), the qPCR of cell-bound HAdV-C5 genomes on myoblasts (5000 vp/cell, 2 µM Lfcin, on ice 30 min), with versus without Lfcin came to 20 fold.
